Test [1] concerns the target gdir_arath GDI1 (UniProt Q9SFC6).
The target is the same in test [2]. The source holds these as a separate data set.

Chain of gdir_arath GDI1 (Q9SFC6 whole entry): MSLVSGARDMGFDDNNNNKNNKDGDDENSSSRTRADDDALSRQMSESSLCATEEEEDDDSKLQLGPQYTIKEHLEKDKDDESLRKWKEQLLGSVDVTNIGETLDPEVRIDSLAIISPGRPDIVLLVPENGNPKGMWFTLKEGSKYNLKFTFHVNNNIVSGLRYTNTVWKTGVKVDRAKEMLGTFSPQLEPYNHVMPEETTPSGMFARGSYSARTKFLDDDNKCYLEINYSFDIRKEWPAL
Chain of Rac-like GTP-binding protein ARAC3 (Arabidopsis thaliana (Mouse-ear cress)), Q38912 T20N (Q38912 whole entry T20N): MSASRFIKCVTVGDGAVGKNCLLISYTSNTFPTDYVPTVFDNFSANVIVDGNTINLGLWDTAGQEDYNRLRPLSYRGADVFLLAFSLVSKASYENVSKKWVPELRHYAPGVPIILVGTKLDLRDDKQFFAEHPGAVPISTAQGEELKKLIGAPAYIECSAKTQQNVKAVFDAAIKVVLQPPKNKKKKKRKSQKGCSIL
Chain of Rac-like GTP-binding protein ARAC5 (Arabidopsis thaliana (Mouse-ear cress)), Q38937 T20N (Q38937 whole entry T20N): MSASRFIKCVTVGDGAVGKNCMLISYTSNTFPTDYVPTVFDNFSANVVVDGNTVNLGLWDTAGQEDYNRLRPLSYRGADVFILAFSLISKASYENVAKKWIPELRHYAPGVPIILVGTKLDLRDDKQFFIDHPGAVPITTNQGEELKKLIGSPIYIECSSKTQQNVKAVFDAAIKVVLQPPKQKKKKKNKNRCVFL

Consider “Rac-like GTP-binding protein ARAC3 (Arabidopsis thaliana (Mouse-ear cress)), Q38912 T20N”, for which the “effect of a mutation on the interaction” value in the test with gdir_arath GDI1 [1] is recorded as “disrupting interaction”.

For the substance “Rac-like GTP-binding protein ARAC5 (Arabidopsis thaliana (Mouse-ear cress)), Q38937 T20N”, the “effect of a mutation on the interaction” value in the test with gdir_arath GDI1 [2] is “disrupting interaction”.
